Data from US7038112B2, “Fatty acid elongases” (Miami University, priority 1997, dated 2006).
Read-outs that look alike come from different tables or passages of the source.

Experiments:
[1] = In vitro fatty acid elongation assay with yeast microsomes, 18:0 acyl-CoA substrate; type: biochemical, Saccharomyces cerevisiae; settings: for (%) 20:0 acyl CoA / (%) 22:0 acyl CoA / (%) 24:0 acyl CoA / (%) 26:0 acyl CoA / (%) Total / Rate, 20:0 acyl CoA / Rate, 22:0 acyl CoA / Rate, 24:0 acyl CoA / Rate, 26:0 acyl CoA / Rate, Total: second experiment
Method: (§1) Transformed yeast cells were grown in the presence of either glucose or galactose (2% w/v) as described in Example 1. Cells were harvested by centrifugation at 5000×g for 10 min and washed with 10 ml ice cold isolation buffer (IB), which contains 80 mM Hepes-KOH, pH 7.2, 5 mM EGTA, 5 mM EDTA, 10 mM KC1, 320 mM sucrose and 2 mM DTT). Cells were then resuspended in enough IB to fill a 1.7 ml tube containing 700 μl of 0.5 μm glass beads and yeast microsomes were isolated from the cells essentially as described in Tillman, T. and Bell, R., J. Biol. Chem. 261:9144–9149 (1986). The microsomal membrane pellet was recovered by centrifugation at 252,000×g for 60 min. The pellet was rinsed by resuspending in 40 ml fresh IB and again recovered by centrifugation at 252000×g for 60 min. Microsomal pellets were resuspended in a minimal volume of IB, and the protein concentration adjusted to 2.5 μg μl^−1 by addition of IB containing 15% glycerol. Microsomes were frozen on dry ice and stored at −80° C. The protein concentration in microsomes was determined by the Bradford method (Bradford, 1976).
(§2) Fatty acid elongase activity was measured essentially as described in Hlousek-Radojcic, A. et al., Plant J. 8:803–809 (1995). Briefly, the standard elongation reaction mix contained 80 mM Hepes-KOH, pH 7.2, 20 mM MgCl2, 500 μM NADPH, 1 mM ATP, 100 μM malonyl-CoA, 10 μM CoA-SH and 15 μM radioactive acyl-CoA substrate. The radiolabeled substrate was either [1^−14C]18:1-CoA (50 uCi μmol^−1), [1^−14C]18:0-CoA (55 uCi μmol^−1), or [1^−14C]16:0-CoA (54 uCi μmol^−1). The reaction was initiated by the addition of yeast microsomes (5 μg protein) and the mixture incubated at 30° C. for the indicated period of time. The final reaction volume was 25 μl.
(§3) Methyl esters of the acyl-CoA elongation products were prepared as described in Example 1. Methyl esters were separated on reversed phase silica gel KC18 TLC plates (Whatman, […] thick), quantified by phosphorimaging, and analyzed on by ImageQuant software (Molecular Dynamics, Inc., Sunnyvale, Calif.). The detection limit for each product is about 0.001 nanomoles per min. per mg microsomal protein, depending on the phosphorimage exposure time.
(§4) Yeast cultures containing full-length EL1 in λYES and full-length EL2 in pYEUra3 were grown in the presence of galactose or glucose as described in Example 2. Microsomes were then prepared from each of the cultures and fatty acid elongation assays were carried out as described in Example 2.
(§5) In the first experiment, microsomes were prepared from galactose-induced cultures of EL1, EL2 and FAE1, and incubated with either [1-^14C] 18:0 acyl-CoA or [1-^14C] 18:1 acyl-CoA as substrate. The amounts of various reaction products synthesized after 30 minutes (min) were determined as described in Example 2.
In a second experiment, microsomes were prepared from galactose-induced and from glucose-repressed yeast cultures containing EL1 or EL2 coding sequences. The microsomal preparations were incubated with either 18:0 acyl-CoA or 18:1 acyl-CoA as substrate and the fatty acid reaction products determined as described above. […]

[2] = type: biochemical, Saccharomyces cerevisiae; settings: for (%) 20:1 acyl CoA / (%) 22:1 acyl CoA / (%) 24:1 acyl CoA / (%) 26:1 acyl CoA / (%) Total / Rate, 20:1 acyl CoA / Rate, 22:1 acyl CoA / Rate, 24:1 acyl CoA / Rate, 26:1 acyl CoA / Rate, Total: second experiment
Method: as §1, §2, §3, §4, §5
In a second experiment, microsomes were prepared from galactose-induced and from glucose-repressed yeast cultures containing EL1 or EL2 coding sequences. The microsomal preparations were incubated with either 18:0 acyl-CoA or 18:1 acyl-CoA as substrate and the fatty acid reaction products determined as described above.

[3] = 18:0-CoA substrate, +Galactose (induced)
[4] = 18:0-CoA substrate, +Glucose (uninduced)
[5] = 18:0-CoA substrate, galactose-induced, 30 min, first experiment
[6] = +Gal, standard reaction mix, average of two experiments
[7] = +Glu, standard reaction mix, one experiment
[8] = galactose-induced, −A&C (ATP and Coenzyme A omitted), average of two experiments
[9] = galactose-induced, −ATP, average of two experiments
[10] = galactose-induced, −CoA, average of two experiments
[11] = 18:1-CoA substrate, +Galactose (induced)
[12] = 18:1-CoA substrate, +Glucose (uninduced)
[13] = 18:1-CoA substrate, galactose-induced, 30 min, first experiment

B1: EL1: Arabidopsis β-keto acyl synthase gene product (SEQ ID NO:2) expressed in yeast microsomes (protein, listed as Arabidopsis thaliana)
chain: MDRERLTAEMAFRDSSSAVIRIRRRLPDLLTSVKLKYVKLGLHNSCNVTTILFFLIILPLTGTVLVQLTGLTFDTFSELWSNQAVQLDTATRLTCLVFLSFVLTLYVANRSKPVYLVDFSCYKPEDERKISVDSFLTMTEENGSFTDDTVQFQQRISNRAGLGDETYLPRGITSTPPKLNMSEARAEAEAVMFGALDSLFEKTGIKPAEVGILIVNCSLFNPTPSLSAMIVNHYKMREDIKSYNLGGMGCSAGLISIDLANNLLKANPNSYAVVVSTENITLNWYFGNDRSMLLCNCIFRMGGAAILLSNRRQDRKKSKYSLVNVVRTHKGSDDKNYNCVYQKEDERGTIGVSLARELMSVAGDALKTNITTLGPMVLPLSEQLMFLISLVKRKMFKLKVKPYIPDFKLAFEHFCIHAGGRAVLDEVQKNLDLKDWHMEPSRMTLHRFGNTSSSSLWYEMAYTEAKGRVKAGDRLWQIAFGSGFKCNSAVWKALRPVSTEEMTGNAWAGSIDQYPVKVVQ
For B1, the “(%) 20:0 acyl CoA” value [1, 3] was 55.8%, the “(%) 22:0 acyl CoA” value [1, 3] was 17.4% and the “(%) 24:0 acyl CoA” value [1, 3] was 15.3%. For the same molecule, the “(%) 26:0 acyl CoA” value [1, 3] was 11.5%, the “(%) Total” value [1, 3] was 100.0% and the “Rate, 20:0 acyl CoA” value [1, 3] was 0.074 Nanomoles/minute/mg of microsomal protein. The “Rate, 22:0 acyl CoA” value [1, 3] was 0.023 Nanomoles/minute/mg of microsomal protein, the “Rate, 24:0 acyl CoA” value [1, 3] was 0.020 Nanomoles/minute/mg of microsomal protein and the “Rate, 26:0 acyl CoA” value [1, 3] was 0.015 Nanomoles/minute/mg of microsomal protein. The “Rate, Total” value [1, 3] was 0.133 Nanomoles/minute/mg of microsomal protein, the “(%) 20:0 acyl CoA” value [1, 4] was 100.0% and the “(%) 22:0 acyl CoA” value [1, 4] was 0.0%. For the same molecule, the “(%) 24:0 acyl CoA” value [1, 4] was 0.0%, the “(%) 26:0 acyl CoA” value [1, 4] was 0.0% and the “(%) Total” value [1, 4] was 100.0%. For the same molecule, the “Rate, 20:0 acyl CoA” value [1, 4] was 0.007 Nanomoles/minute/mg of microsomal protein, the “Rate, 22:0 acyl CoA” value [1, 4] was 0.000 Nanomoles/minute/mg of microsomal protein and the “Rate, 24:0 acyl CoA” value [1, 4] was 0.000 Nanomoles/minute/mg of microsomal protein. The “Rate, 26:0 acyl CoA” value [1, 4] was 0.000 Nanomoles/minute/mg of microsomal protein, the “Rate, Total” value [1, 4] was 0.007 Nanomoles/minute/mg of microsomal protein and the “effect of omission of ATP and/or CoA on overall amounts of VLCFAs synthesized” value ([1]; 18:0-CoA substrate, galactose-induced) was “does not have a significant effect”. For the same molecule, the “(%) 20:0 acyl-CoA product” value [1, 5] was 38.8%, the “(%) 22:0 acyl-CoA product” value [1, 5] was 21.9% and the “(%) 24:0 acyl-CoA product” value [1, 5] was 19.9%. For the same molecule, the “(%) 26:0 acyl-CoA product” value [1, 5] was 19.4%, the “(%) Total acyl-CoA products” value [1, 5] was 100.0% and the “Rate, 20:0 acyl-CoA product” value [1, 5] was 0.084 Nanomoles/minute/mg of microsomal protein. For the same molecule, the “Rate, 22:0 acyl-CoA product” value [1, 5] was 0.047 Nanomoles/minute/mg of microsomal protein, the “Rate, 24:0 acyl-CoA product” value [1, 5] was 0.043 Nanomoles/minute/mg of microsomal protein and the “Rate, 26:0 acyl-CoA product” value [1, 5] was 0.042 Nanomoles/minute/mg of microsomal protein. The “Rate, Total acyl-CoA products” value [1, 5] was 0.216 Nanomoles/minute/mg of microsomal protein, the “20:0 product as a percent of total products formed” value (from here on “20:0 product as a percent”) [1, 6] was 46.2% and the “22:0 product as a percent of total products formed” value (“22:0 product as a percent” below) [1, 6] was 18.7%. For the same molecule, the “24:0 product as a percent of total products formed” value (shortened to “24:0 product as a percent”) [1, 6] was 18.1%, the “26:0 product as a percent of total products formed” value (“26:0 product as a percent” for short) [1, 6] was 17.1% and the “Total products as a percent of total products formed” value (“Total products as a percent” below) [1, 6] was 100.0%. The “20:0 product as a percent” value [1, 7] was 53.9%, the “22:0 product as a percent” value [1, 7] was 14.4% and the “24:0 product as a percent” value [1, 7] was 18.5%. For the same molecule, the “26:0 product as a percent” value [1, 7] was 13.2%, the “Total products as a percent” value [1, 7] was 100.0% and the “increase in overall elongase activity on induction with galactose, 18:0 acyl CoA substrate” value ([1]; galactose-induced vs glucose) was “about 19 fold”. The “20:0 product as a percent” value [1, 8] was 41.7%, the “22:0 product as a percent” value [1, 8] was 19.4% and the “24:0 product as a percent” value [1, 8] was 16.7%. The “26:0 product as a percent” value [1, 8] was 22.3%, the “Total products as a percent” value [1, 8] was 100.0% and the “20:0 product as a percent” value [1, 9] was 34.4%. For the same molecule, the “22:0 product as a percent” value [1, 9] was 13.7%, the “24:0 product as a percent” value [1, 9] was 20.6% and the “26:0 product as a percent” value [1, 9] was 31.4%. For the same molecule, the “Total products as a percent” value [1, 9] was 100.0%, the “20:0 product as a percent” value [1, 10] was 47.8% and the “22:0 product as a percent” value [1, 10] was 18.0%. For the same molecule, the “24:0 product as a percent” value [1, 10] was 19.1%, the “26:0 product as a percent” value [1, 10] was 15.2% and the “Total products as a percent” value [1, 10] was 100.0%. The “18:0-CoA elongation activity, +Glu” value ([1]; microsomes from glucose-grown cultures, standard reaction mix) was “.037 nanomoles/minute/mg of microsomal protein”, the “increase in 18:1 CoA elongation, microsomes from induced vs uninduced cells” value [2] was “about 1.3 fold” and the “(%) 20:1 acyl CoA” value [2, 11] was 100.0%. The “(%) 22:1 acyl CoA” value [2, 11] was 0.0%, the “(%) 24:1 acyl CoA” value [2, 11] was 0.0% and the “(%) 26:1 acyl CoA” value [2, 11] was 0.0%. For the same molecule, the “(%) Total” value [2, 11] was 100.0%, the “Rate, 20:1 acyl CoA” value [2, 11] was 0.081 Nanomoles/minute/mg of microsomal protein and the “Rate, 22:1 acyl CoA” value [2, 11] was 0.000 Nanomoles/minute/mg of microsomal protein. For the same molecule, the “Rate, 24:1 acyl CoA” value [2, 11] was 0.000 Nanomoles/minute/mg of microsomal protein, the “Rate, 26:1 acyl CoA” value [2, 11] was 0.000 Nanomoles/minute/mg of microsomal protein and the “Rate, Total” value [2, 11] was 0.081 Nanomoles/minute/mg of microsomal protein. For the same molecule, the “(%) 20:1 acyl CoA” value [2, 12] was 100.0%, the “(%) 22:1 acyl CoA” value [2, 12] was 0.0% and the “(%) 24:1 acyl CoA” value [2, 12] was 0.0%. For the same molecule, the “(%) 26:1 acyl CoA” value [2, 12] was 0.0%, the “(%) Total” value [2, 12] was 100.0% and the “Rate, 20:1 acyl CoA” value [2, 12] was 0.062 Nanomoles/minute/mg of microsomal protein. For the same molecule, the “Rate, 22:1 acyl CoA” value [2, 12] was 0.000 Nanomoles/minute/mg of microsomal protein, the “Rate, 24:1 acyl CoA” value [2, 12] was 0.000 Nanomoles/minute/mg of microsomal protein and the “Rate, 26:1 acyl CoA” value [2, 12] was 0.000 Nanomoles/minute/mg of microsomal protein. The “Rate, Total” value [2, 12] was 0.062 Nanomoles/minute/mg of microsomal protein, the “(%) 20:1 acyl-CoA product” value [2, 13] was 80.8% and the “(%) 22:1 acyl-CoA product” value [2, 13] was 19.2%. The “(%) 24:1 acyl-CoA product” value [2, 13] was 0.0%, the “(%) 26:1 acyl-CoA product” value [2, 13] was 0.0% and the “(%) Total acyl-CoA products” value [2, 13] was 100.0%. For the same molecule, the “Rate, 20:1 acyl-CoA product” value [2, 13] was 0.111 Nanomoles/minute/mg of microsomal protein, the “Rate, 22:1 acyl-CoA product” value [2, 13] was 0.026 Nanomoles/minute/mg of microsomal protein and the “Rate, 24:1 acyl-CoA product” value [2, 13] was 0.0 Nanomoles/minute/mg of microsomal protein. For the same molecule, the “Rate, 26:1 acyl-CoA product” value [2, 13] was 0.0 Nanomoles/minute/mg of microsomal protein and the “Rate, Total acyl-CoA products” value [2, 13] was 0.137 Nanomoles/minute/mg of microsomal protein.
